Reference: PMC10243991

Molecular target: GST-MdPP2AC (apple (Malus × domestica Borkh.))
Assay: MST; GST-MdPP2AC labelled with RED-NHS dye, 100 nM, in 0.05% PBS Tween buffer; MdSnRK2.6 titrated (3.81 × 10^−4 to 25 nM as printed); Monolith NT.115

With MdSnRK2.6-His (enzyme) as the substance, how does the Kd read?
The Kd was 0.109 µM.
